Measurements published in the supplement of paper PMC9112550, “Optimization of the antimicrobial peptide Bac7 by deep mutational scanning” (BMC Biology, 2022).

Each sequence was assayed on Escherichia coli TOP10 (assay: shrunken log2 fold change of peptide-encoding DNA abundance (4.5 h post-induction vs induction); higher = less antimicrobial activity (less host growth inhibition)). Details: time post-induction: 4.5 h; library: site-saturation at positions 5, 18, 19, 20.
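Further: peptides expressed intracellularly from a pBAD plasmid library in pooled LB shake-flask culture, induced with 0.3% L-arabinose, DNA abundance read by NGS, three biological replicates, DESeq2 with apeglm shrinkage.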

Point of comparison: RRIRPRPPRLPRPRPRPHYEPRP, “shrunken log2 fold change” value -0.206. Against it:
- RRIRFRPPRLPRPRPRPNQDPRP — within 0.2 log units, -0.361
- RRIRWRPPRLPRPRPRPMSKPRP — within 0.2 log units, -0.133
- RRIRDRPPRLPRPRPRPWGHPRP — higher, 0.0208
- RRIRPRPPRLPRPRPRPNDGPRP — lower, -0.482
- RRIRIRPPRLPRPRPRPQFTPRP — lower, -0.986
- RRIRIRPPRLPRPRPRPQPNPRP — within 0.2 log units, -0.267
- RRIRHRPPRLPRPRPRPRHNPRP — within 0.2 log units, -0.4
- RRIRWRPPRLPRPRPRPMFRPRP — within 0.2 log units, -0.129
- RRIRGRPPRLPRPRPRPQIYPRP — higher, 0.185
- RRIRWRPPRLPRPRPRPESWPRP — higher, 1.05
- RRIRGRPPRLPRPRPRPCIQPRP — within 0.2 log units, -0.0256
- RRIRARPPRLPRPRPRPKGLPRP — higher, 0.433
- RRIRRRPPRLPRPRPRPFLVPRP — lower, -0.566
- RRIRVRPPRLPRPRPRPCPLPRP — lower, -0.418
- RRIRPRPPRLPRPRPRPWSGPRP — higher, 0.000793
- RRIRYRPPRLPRPRPRPIPIPRP — within 0.2 log units, -0.168
- RRIRCRPPRLPRPRPRPNVGPRP — higher, 0.0143
- RRIRTRPPRLPRPRPRPANWPRP — higher, 0.0703
- RRIRVRPPRLPRPRPRPNDQPRP — within 0.2 log units, -0.0759
- RRIRSRPPRLPRPRPRPPKPPRP — higher, 0.149
- RRIRSRPPRLPRPRPRPEFWPRP — higher, 0.281
- RRIRIRPPRLPRPRPRPETYPRP — within 0.2 log units, -0.263
- RRIRARPPRLPRPRPRPKQPPRP — higher, 0.516
- RRIRDRPPRLPRPRPRPNWTPRP — higher, 0.0279
- RRIRMRPPRLPRPRPRPAHTPRP — higher, 0.709
- RRIRFRPPRLPRPRPRPVIGPRP — within 0.2 log units, -0.234
- RRIRWRPPRLPRPRPRPFACPRP — higher, 0.00273
- RRIRWRPPRLPRPRPRPLKQPRP — higher, 0.206
- RRIRHRPPRLPRPRPRPTMIPRP — within 0.2 log units, -0.112
- RRIRGRPPRLPRPRPRPDIYPRP — higher, 1.05
- RRIRQRPPRLPRPRPRPLTAPRP — higher, 0.0683
- RRIRARPPRLPRPRPRPRGIPRP — higher, 0.488
- RRIRNRPPRLPRPRPRPERMPRP — within 0.2 log units, -0.0351
- RRIRFRPPRLPRPRPRPQPPPRP — higher, 0.94
- RRIRYRPPRLPRPRPRPSKRPRP — within 0.2 log units, -0.236
- RRIRTRPPRLPRPRPRPIVGPRP — within 0.2 log units, -0.0587
- RRIRQRPPRLPRPRPRPAYWPRP — higher, 0.128
- RRIRLRPPRLPRPRPRPKQVPRP — within 0.2 log units, -0.0171
- RRIRFRPPRLPRPRPRPRIGPRP — higher, 0.543
- RRIRPRPPRLPRPRPRPLWNPRP — within 0.2 log units, -0.0917
- RRIRWRPPRLPRPRPRPMFPPRP — higher, 0.0483
- RRIRYRPPRLPRPRPRPQPFPRP — higher, 0.00414
- RRIRVRPPRLPRPRPRPVTCPRP — within 0.2 log units, -0.155
- RRIRERPPRLPRPRPRPHGQPRP — within 0.2 log units, -0.0165
- RRIRPRPPRLPRPRPRPVLKPRP — within 0.2 log units, -0.267
- RRIRERPPRLPRPRPRPHEFPRP — within 0.2 log units, -0.0591
- RRIRTRPPRLPRPRPRPCFLPRP — lower, -0.535
- RRIRERPPRLPRPRPRPCHRPRP — within 0.2 log units, -0.02
- RRIRGRPPRLPRPRPRPPVCPRP — higher, 0.213
- RRIRTRPPRLPRPRPRPEWRPRP — higher, 0.338
- RRIRGRPPRLPRPRPRPQEGPRP — higher, 0.0358
- RRIRVRPPRLPRPRPRPCMAPRP — within 0.2 log units, -0.276
- RRIRCRPPRLPRPRPRPIWSPRP — higher, 0.162
- RRIRPRPPRLPRPRPRPYDIPRP — lower, -0.88
- RRIRDRPPRLPRPRPRPNFGPRP — higher, 0.0243
- RRIRHRPPRLPRPRPRPTAYPRP — within 0.2 log units, -0.23
- RRIRWRPPRLPRPRPRPNELPRP — higher, 0.073
- RRIRFRPPRLPRPRPRPNNVPRP — within 0.2 log units, -0.179
- RRIRNRPPRLPRPRPRPYGNPRP — within 0.2 log units, -0.287
- RRIRWRPPRLPRPRPRPEWYPRP — higher, 0.0654
- RRIRIRPPRLPRPRPRPWALPRP — within 0.2 log units, -0.0173
- RRIRRRPPRLPRPRPRPVGVPRP — higher, 0.705
- RRIRTRPPRLPRPRPRPMFLPRP — lower, -0.593
- RRIRKRPPRLPRPRPRPWICPRP — higher, 0.044
- RRIRMRPPRLPRPRPRPCMDPRP — higher, 0.104
- RRIRRRPPRLPRPRPRPGPFPRP — higher, 0.162
- RRIRTRPPRLPRPRPRPCFTPRP — within 0.2 log units, -0.358
- RRIRPRPPRLPRPRPRPNSHPRP — lower, -0.521
- RRIRFRPPRLPRPRPRPCSYPRP — within 0.2 log units, -0.344
- RRIRNRPPRLPRPRPRPCVPPRP — within 0.2 log units, -0.00911
- RRIRLRPPRLPRPRPRPIYPPRP — within 0.2 log units, -0.134
- RRIRGRPPRLPRPRPRPRALPRP — higher, 0.852
- RRIRCRPPRLPRPRPRPMNIPRP — lower, -0.693
- RRIRRRPPRLPRPRPRPMFGPRP — within 0.2 log units, -0.0512
- RRIRMRPPRLPRPRPRPWCDPRP — higher, 0.274
- RRIRWRPPRLPRPRPRPAGMPRP — higher, 0.321
- RRIRVRPPRLPRPRPRPDGYPRP — within 0.2 log units, -0.00884
- RRIRMRPPRLPRPRPRPSQWPRP — higher, 0.0206
- RRIRSRPPRLPRPRPRPTTEPRP — higher, 0.014
- RRIRWRPPRLPRPRPRPSIEPRP — higher, 0.0114
- RRIRLRPPRLPRPRPRPSGCPRP — higher, 0.345
- RRIRARPPRLPRPRPRPFACPRP — higher, 0.829
- RRIRGRPPRLPRPRPRPYVRPRP — lower, -0.51
- RRIRFRPPRLPRPRPRPLMWPRP — higher, 0.0935
- RRIRYRPPRLPRPRPRPFRCPRP — higher, 0.0856
- RRIRFRPPRLPRPRPRPSSEPRP — within 0.2 log units, -0.134
- RRIRFRPPRLPRPRPRPFSFPRP — lower, -0.499
- RRIRPRPPRLPRPRPRPRLEPRP — higher, 0.197
- RRIRTRPPRLPRPRPRPDTFPRP — higher, 0.0276
- RRIRERPPRLPRPRPRPHCGPRP — within 0.2 log units, -0.333
- RRIRRRPPRLPRPRPRPQISPRP — within 0.2 log units, -0.0603
- RRIRYRPPRLPRPRPRPRRYPRP — lower, -0.492
- RRIRCRPPRLPRPRPRPCHTPRP — higher, 0.00624
- RRIRWRPPRLPRPRPRPTDDPRP — within 0.2 log units, -0.0402
- RRIRRRPPRLPRPRPRPGPCPRP — higher, 0.0678
- RRIRSRPPRLPRPRPRPQIVPRP — within 0.2 log units, -0.32
- RRIRTRPPRLPRPRPRPTFYPRP — within 0.2 log units, -0.0485
- RRIRPRPPRLPRPRPRPARFPRP — higher, 0.383
- RRIRVRPPRLPRPRPRPITWPRP — within 0.2 log units, -0.182
- RRIRKRPPRLPRPRPRPQAAPRP — higher, 0.451
- RRIRRRPPRLPRPRPRPQHKPRP — higher, 0.0372
- RRIRFRPPRLPRPRPRPRFMPRP — within 0.2 log units, -0.117
- RRIRSRPPRLPRPRPRPEPNPRP — higher, 0.374
- RRIRIRPPRLPRPRPRPGHCPRP — within 0.2 log units, -0.247
- RRIRWRPPRLPRPRPRPVILPRP — within 0.2 log units, -0.208
- RRIRIRPPRLPRPRPRPVLCPRP — within 0.2 log units, -0.0142
- RRIRNRPPRLPRPRPRPTQVPRP — higher, 0.152
- RRIRFRPPRLPRPRPRPEPQPRP — higher, 0.417
- RRIRFRPPRLPRPRPRPDMFPRP — within 0.2 log units, -0.0758
- RRIRQRPPRLPRPRPRPPKWPRP — higher, 0.136
- RRIRDRPPRLPRPRPRPFMHPRP — within 0.2 log units, -0.148
- RRIRERPPRLPRPRPRPVQEPRP — higher, 0.0869
- RRIRARPPRLPRPRPRPINPPRP — higher, 0.0479
- RRIRVRPPRLPRPRPRPWEFPRP — within 0.2 log units, -0.102
- RRIRRRPPRLPRPRPRPKLCPRP — higher, 0.333
- RRIRFRPPRLPRPRPRPHEEPRP — higher, 0.00592
- RRIRQRPPRLPRPRPRPAEVPRP — higher, 0.142
- RRIRARPPRLPRPRPRPDTEPRP — higher, 0.00829
- RRIRWRPPRLPRPRPRPCWSPRP — within 0.2 log units, -0.106
- RRIRLRPPRLPRPRPRPGPFPRP — higher, 0.137
- RRIRSRPPRLPRPRPRPHEEPRP — higher, 0.0919
- RRIRDRPPRLPRPRPRPLIEPRP — higher, 0.573
- RRIRLRPPRLPRPRPRPRVTPRP — within 0.2 log units, -0.243
- RRIRERPPRLPRPRPRPEMHPRP — higher, 0.0332
